Results on one molecule are retold here after patent publication US5786324A, “Synthetic peptides with bactericidal activity and endotoxin neutralizing activity for gram negative bacteria and methods for their use” (priority 1994, dated 1998).

For series [1], the system named is Pseudomonas aeruginosa type 1. In kind it is cell-based. As to conditions: for % Killing of 5 × 10^6 Bacteria: P. aeruginosa. How it is done:
Bactericidal activity can be evaluated against a variety of bacteria such as Pseudomonas spp including aeruginosa and P. cepacia, E. coli B, and Staphylococcus aureus. The preferred organism is P. aeruginosa. Bactericidal activity is determined by identifying the effective dose for killing as the molar concentration of the peptide which results in at least a 60% killing of the bacteria, as determined by standard methods. Preferably, the peptide has an effective dose at a concentration of about 1×10^-4 M to about 1×10^-10 M, and more preferably 1×10^-7 M to 1×10^-9M . […] The effective dose for bactericidal activity of B/PI is seen at about […] . Bactericidal activity can also be determined by calculating a lethal dose 50 (LD50) using standard methods. The LD50 is that amount of peptide or protein that kills 50% of the bacteria when measured using standard dose response methods. A bactericidal peptide preferably has an LD50 of about 10^-4 M to about 10^-9 M , more preferably about 10^-7 to 10^-9 M .
(§1) The synthetically produced peptides were assayed for bactericidal activity against Pseudomonas aeruginosa, type 1, P. cepacia ATCC 25608, E. coli B, and Staphylococcus aureus 502A by standard methods.
(§2) Pseudomonas aeruginosa type 1 is a clinical isolate maintained in the laboratory since 1972. The isolate remains a smooth strain and was serotyped by the scheme of Homma. Homma, Jpn. J. Exp. Med., 46:329 (1976). A rough strain E. coli B and S. aureus 502A were obtained from Paul Quie, University of Minnesota. The characteristics of the S. aureus strain have been described in Shinefield et al., Amer. J. Dis. Chil., 105:646 (1963). Pseudomonas cepacia ATCC 25608 was purchased from the American Type Culture Collection in 1980. S. aureus and E. coli were maintained on nutrient agar plates and the Pseudomonas strains were maintained on blood agar plates.
(§3) Pyrogen-free solutions were used throughout this assay and all methods which follow. Log phase bacteria were prepared from a culture in brain heart infusion broth as previously described except that bacteria were washed and resuspended in saline with adjustment to an optical density at 650 nm which would yield 3×10^8 CFU/ml. Bacteria were then diluted 1:10 in 0.08M citrate phosphate buffer, pH 5.6 or pH 7.0, for use in the assay. S. aureus rapidly lost viability in the pH 5.6 buffer and was studied only at pH 7.0. Bactericidal activity was determined by dose response and where an LD50 is indicated, it was determined by linear regression.

In series [2] the test system is P. cepacia ATCC 25608. In words: Bactericidal assay, P. cepacia. As to conditions: for % Killing of 5 × 10^6 Bacteria: P. cepacia, 4.1 × 10^-9 M. Type of series: cell-based, Pseudomonas cepacia. How it is done: as §1, §2, §3
Series [3] concerns E. coli B. The experiment in a line: Bactericidal assay, E. coli B. Type of series: cell-based. On the procedure:
as §1, §2, §3

In series [4] the test system is Staphylococcus aureus 502A. Type of series: cell-based. Conditions: S. aureus; pH 7.0; 4.1 × 10^-9 M. How it is done:
as §1, §2, §3

Series [5] deals with E. coli 055: B5 LPS. The experiment in a line: Limulus amoebocyte lysate assay, neutralization of endotoxin. Type of series: biochemical. An excerpt:
The peptide selected can also have endotoxin neutralizing activity. […] Endotoxin neutralizing activity can also be measured by calculating an inhibitory dose 50 […] using standard does response methods. An inhibitory dose 50 is that amount of peptide that can inhibit 50% of the activity of endotoxin. Endotoxin activity can also be measured by determining the amount of release of tumor necrosis factor alpha (TNFα) from a macrophage cell line or by evaluating the symptoms of shock in animals. Peptides preferably neutralized endotoxin at a molar concentration of about 1×10^-4 M to about 10^-8 M , more preferably about 10^-5 M to about 10^-6 M .
The ability of synthetic peptides to neutralize endotoxin was detected with the E-TOXATE kit manufactured by Sigma Chemicals, St. Louis, Mo. […] Peptide was incubated with LPS at room temperature for 10 minutes in 100 μl of a 1:2 dilution of pyrogen-free saline, pH 6.4. The reaction was started by addition of 100 μl of amoebocyte lysate and the final volume was 200 μl.
^a The dose of peptide required to inhibit clotting of LAL by 100%.
Each tube contained 0.04 endotoxin units of E. coli LPS.

The nature of series [6]: Storage stability of bactericidal activity of B/PI in elution buffer. In kind it is physicochemical. Conditions: 0.05M glycine buffer, pH 2.5, with 0.5M NaCl; 4° C. and -70° C.; prolonged periods. How it is done:
Recombinant products can be purified from infected cells by immunoaffinity chromatography with the appropriate immobilized rabbit anti-peptide antibody or a mouse monoclonal antibody to B/PI. B/PI was reproducibly purified by application of partially purified samples of 2 mg protein to a 1.5×180 cm Toyopearl HW55S (Toso Haas) column or 200 mg protein to a TSX2000 HPLC (Beckman) column. The elution buffer for both columns is 0.05M glycine buffer, pH 2.5, with 0.5M NaCl. Recovery of B/PI protein was excellent and 100% of bactericidal activity is retained. The bactericidal activity of B/PI in this buffer was stable at 4° C. and at -70° C. for prolonged periods. The columns resolve protein standards over the range of 2-70 kD and can be used for all steps separation of fragments of B/PI by molecular weight. Reverse phase HPLC can be used if necessary.

Where [7] appears, read: Table 7, dose required to inhibit clotting of LAL by 100%, 0.04 endotoxin units of E. coli LPS.

Entries after “also recorded” stand apart in the source; their conditions may differ. Where two headings read alike, the source gives them in different places.

B1: B/PI: 55 kD bactericidal/permeability increasing protein purified from human neutrophil granules (protein)
chain: MRENMARGPCNAPRWVSLMVLVAIGTAVTAAVNPGVVVRISQKGLDYASQQGTAALQKELKRIKIPDYSDSFKIKHLGKGHYSFYSMDIREFQLPSSQISMVPNVGLKFSISNANIKISGKWKAQKRFLKMSGNFDLSIEGMSISADLKLGSNPTSGKPTITCSSCSSHINSVHVHISKSKVGWLIQLFHKKIESALRNKMNSQVCEKVTNSVSSKLQPYFQTLPVMTKIDSVAGINYGLVAPPATTAETLDVQMKGEFYSENHHNPPPFAPPVMEFPAAHDRMVYLGLSDYFFNTAGLVYQEAGVLKMTLRDDMIPKESKFRLTTKFFGTFLPEVAKKFPNMKIQIHVSASTPPHLSVQPTGLTFYPAVDVQAFAVLPNSSLASLFLIGMHTTGSMEVSAESNRLVGELRLDRLLLQLKHSNIGPFPVELLQDIMNYIVPILVLPRVNEKLQKGFPLPTPARVQLYNVVLQPHQNFLLFGADVVYK
Take B1: the “LD50 for P. aeruginosa” value in series [1] (5×10^6 CFU, pH 5.6, dose response, linear regression) is 3.4 nM. For the same molecule, the “% Killing of 5 × 10^6 Bacteria” value in series [1] (pH 5.6, 4.1 × 10^-9 M) stood at 50 ± 5%; in series [1] (pH 5.6, 5.5 × 10^-9 M) it was 87 ± 8%; in series [1] (pH 7.0, 4.1 × 10^-9 M), 35 ± 3%; in series [2] (pH 5.6) it was 0%; in series [2] (pH 7.0), 0%; in series [3] (E. coli B, pH 5.6, 5.5 × 10^-9 M) it was 71%. In addition, the “% Killing of 5 × 10^6 Bacteria” value in series [3] (E. coli, pH 5.6, 4.1 × 10^-9 M) was found to be 35 ± 4%; in series [3] (E. coli, pH 7.0, 4.1 × 10^-9 M) it was 25 ± 5%; in series [4] it was 0%. In series [2] (concentration 20fold higher: 9.1×10^-8 M, approximately 5 μg protein/ml), the “killing of P. cepacia (in words)” value was “not killed; also recorded: resisted bactericidal activity”. Further, the “peptide concentration which neutralized endotoxin (100% inhibition of LPS-induced gelation)” value in series [5] (0.04 endotoxin units of E. coli 055: B5 LPS) is “about 10^-8 M”. The “Effective Dose (μg/0.2 ml)” value in series [5] (setting [7]) amounted to 0.165 μg/0.2 ml. In addition, the “Effective Dose M (× 10^-4)” value in series [5] (setting [7]) is 0.00015 M (× 10^-4). In addition, the “stability of bactericidal activity on storage” value in series [6] was “stable”.
